Measured values reported in US20030175888.

Tests used:
LnmP PCP (holo-form) = target: T1, LnmP PCP (holo-form)
T1 chain: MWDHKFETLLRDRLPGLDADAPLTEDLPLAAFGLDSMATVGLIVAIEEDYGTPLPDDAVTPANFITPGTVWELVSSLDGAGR

B1: LnmG (protein)
chain: MVALVFPGQGSQRKGMGADLFARFPDLTRQADTVLGHSVEELCRSSGDGRLDRTEYAQPALFVVSALSYLARDPGLPQPTLLAGHSLGEYGALFAAGCFDFATGVRLVRERGALMGRAQGGGMLAVLGVDGDEVQALLAGTGARQVDVANYNTPTQTVLSGPLDELRMVSAALGQRPGVRCVPVRVSAAFHSRHMRPAAQEFATFLTGFSFADPHRTVISSVTARPYGAGQVAELLSRQIESPVRWSETMAYLRERGTTELEEMGPGKVLTGLWKQGRADGAKARAVAPAPVAVVAGVPAAAAARAPASPAPVAARAATAAPARPSDPAPPAPRTAPSPASPVPPASVSRGQRAEELGSAEFRQDYGIRYAYLAGAMFRGIASAELVIRMGRAGLMGFFGAGGLGLDKVESALVRIKDALGPDGRYGMNLLHSIDDPAYEHAVVDLCLKHGVHDVEAAGFTQLTPAVVQFRFSGAHRDAAGRAVAVRRVLAKVSRPEVAAAFMAPAPAAILRRLTADGRLTPQEAEIAAELPVGQDICVEADSGGHTDGGAALTLLPSMIRHRDAAMARHGYGRRIRIGAAGGIGAPEAVAAAFVLGADFVLTGSVNQCSPEAGTSDAVKDILAGLDVQDTAYAPAGDMFEIGARVQVVRKGTLFAARGNKLYQLYRSHDSWESIDAGTRRSVEETYFKRPFAEVWEETRAYHLGRGRDAEIEKADRLPKHRMALAFRWYFARSVRWGLEGEPTQKVNYQIQCGPAIGAFNHVVRGTGLEDWRHRHVDLIAEHLMTGAADVLARR
B1 was tested, and the “loading of the [2-14C]malonyl group onto the holo-ACP (SDS-PAGE and phosphor imaging, 5 min)” value (LnmJ-ACP8 (holo-form)) was “six of the seven ACPs were efficiently loaded with the malonyl group (FIG. 13C, lanes 2-4 and 6-8)”, the “loading of the [2-14C]malonyl group onto the holo-ACP (SDS-PAGE and phosphor imaging, 5 min)” value (LnmI-ACP3 (holo-form)) was “six of the seven ACPs were efficiently loaded with the malonyl group (FIG. 13C, lanes 2-4 and 6-8)” and the “loading of the [2-14C]malonyl group onto the holo-ACP (SDS-PAGE and phosphor imaging, 5 min)” value (LnmJ-ACP4 (holo-form)) was “six of the seven ACPs were efficiently loaded with the malonyl group (FIG. 13C, lanes 2-4 and 6-8)”. The “loading of the [2-14C]malonyl group onto the holo-ACP (SDS-PAGE and phosphor imaging, 5 min)” value (LnmJ-ACP5 (holo-form)) was “six of the seven ACPs were efficiently loaded with the malonyl group (FIG. 13C, lanes 2-4 and 6-8)”, the “loading of the [2-14C]malonyl group onto the holo-PCP (SDS-PAGE and phosphor imaging, 5 min)” value (LnmP PCP (holo-form)) was “no loading was observed for the LnmP PCP (FIG. 13C, lane 9)” and the “loading of the [2-14C]malonyl group onto the holo-ACP (SDS-PAGE and phosphor imaging, 5 min)” value (LnmJ-ACP6-2 (holo-form)) was “six of the seven ACPs were efficiently loaded with the malonyl group (FIG. 13C, lanes 2-4 and 6-8)”. For the same protein, the “malonyl loading of the two ACPs of PKS module 6 in vitro” value (LnmJ-ACP6-2 (holo-form)) was “LnmG prefers ACP6-2 in vitro”, the “loading of the [2-14C]malonyl group onto the holo-ACP (SDS-PAGE and phosphor imaging, 5 min)” value (LnmJ-ACP7 (holo-form)) was “six of the seven ACPs were efficiently loaded with the malonyl group (FIG. 13C, lanes 2-4 and 6-8)” and the “loading of the [2-14C]malonyl group onto the tridomain protein (9% SDS-PAGE and phosphor imaging, 2 to 60 min)” value (holo-LnmJ-(DH-ACP-KR)) was “LnmG efficiently loaded the malonyl group to holo-LnmJ-(DH-ACP-KR) (lanes 3-6)”. The “loading of the [2-14C]malonyl group onto the holo-ACP (SDS-PAGE and phosphor imaging, 5 min)” value (LnmJ-ACP6-1 (holo-form)) was “with ACP6-1 being loaded less efficiently (FIG. 13C, lane 5)” and the “loading of the [2-14C]malonyl group onto the tridomain protein (9% SDS-PAGE and phosphor imaging)” value (apo-LnmJ-(DH-ACP-KR)) was “no loading was observed with the apo-LnmJ-(DH-ACP-KR) protein (lane 2)”.
